Results taken from PMC4763987, “Calcium-induced tetramerization and zinc chelation shield human calprotectin from degradation by host and bacterial extracellular proteases† †Electronic supplementary information (ESI) available: Supplementary Tables S1–S6, supplementary Fig. S1–S22. Data for protease activity controls are included …” (Chemical Science, 2015).

Target: T1, S100A9(C3S) subunit of CP-Ser (human, UniProt P06702 1-114, C3S)
T1 construct: S100A9 (calgranulin B, MRP-14), human, 114 amino acids; also called β subunit
T1 sequence (looked up): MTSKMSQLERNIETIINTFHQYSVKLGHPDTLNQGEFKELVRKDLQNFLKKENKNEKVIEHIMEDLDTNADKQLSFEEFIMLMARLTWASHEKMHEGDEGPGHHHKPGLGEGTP
Assay: co-purification; subunits overexpressed and purified as described previously (ref. 19); the protocol affords the S100A8/S100A9 heterodimer; subunits judged by gel electrophoresis and mass spectrometry

B1: S100A8(C42S)(I60E) subunit (natural protein, human, UniProt P05109 1-93, looked up)
chain: MLTELEKALNSIIDVYHKYSLIKGNFHAVYRDDLKKLLETESPQYIRKKGADVWFKELDENTDGAVNFQEFLILVIKMGVAAHKKSHEESHKE
notes: S100A8, human, 93 amino acids; also called S100A8 subunit of I60E
binding result: binds

B2: S100A8(C42S)(I60K) subunit (natural protein, human, UniProt P05109 1-93, looked up)
chain: MLTELEKALNSIIDVYHKYSLIKGNFHAVYRDDLKKLLETESPQYIRKKGADVWFKELDKNTDGAVNFQEFLILVIKMGVAAHKKSHEESHKE
notes: S100A8, human, 93 amino acids; also called S100A8 subunit of I60K
binding result: binds
